# B1: Recombinant human t-PA (tissue plasminogen activator) (protein)
# chain: SYQVICRDEKTQMIYQQHQSWLRPVLRSNRVEYCWCNSGRAQCHSVPVKSCSEPRCFNGGTCQQALYFSDFVCQCPEGFAGKCCEIDTRATCYEDQGISYRGTWSTAESGAECTNWNSSALAQKPYSGRRPDAIRLGLGNHNYCRNPDRDSKPWCYVFKAGKYSSEFCSTPACSEGNSDCYFGNGSAYRGTHSLTESGASCLPWNSMILIGKVYTAQNPSAQALGLGKHNYCRNPDGDAKPWCHVLKNRRLTWEYCDVPSCSTCGLRQYSQPQFRIKGGLFADIASHPWQAAIFAKHRRSPGERFLCGGILISSCWILSAAHCFQERFPPHHLTVILGRTYRVVPGEEEQKFEVEKYIVHKEFDDDTYDNDIALLQLKSDSSRCAQESSVVRTVCLPPADLQLPDWTECELSGYGKHEALSPFYSERLKEAHVRLYPSSRCTSQHLLNRTVTDNMLCAGDTRSGGPQANLHDACQGDSGGPLVCLNDGRMTLVGIISWGLGCGQKDVPGVYTKVTNYLDWIRDNMRP
# Biological target: T1, Recombinant Human FGF23 (Fibroblast Growth Factor 23), Q9GZV9
# T1 chain: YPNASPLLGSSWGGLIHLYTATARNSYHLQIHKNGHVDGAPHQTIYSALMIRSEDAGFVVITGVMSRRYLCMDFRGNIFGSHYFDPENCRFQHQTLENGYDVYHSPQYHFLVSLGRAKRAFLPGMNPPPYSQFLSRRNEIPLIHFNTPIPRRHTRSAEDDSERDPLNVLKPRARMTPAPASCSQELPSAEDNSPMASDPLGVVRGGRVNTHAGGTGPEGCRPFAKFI
protein,measurement,value
B1,"in vitro proteolysis of FGF23, silver stained SDS-PAGE gel",smaller fragments are generated on a silver stained SDS-PAGE gel indicating proteolytic cleavage

# — patent US20200046811
